This is an account of results in patent US20240228586.

For the series, the target named is M-L2-IL12 (masked mouse IL-12 whose linker contains 3 repeats of VPLSLYSG), Q60837.
M-L2-IL12 (masked mouse IL-12 whose linker contains 3 repeats of VPLSLYSG), Q60837, sequence (Q60837 whole entry, looked up): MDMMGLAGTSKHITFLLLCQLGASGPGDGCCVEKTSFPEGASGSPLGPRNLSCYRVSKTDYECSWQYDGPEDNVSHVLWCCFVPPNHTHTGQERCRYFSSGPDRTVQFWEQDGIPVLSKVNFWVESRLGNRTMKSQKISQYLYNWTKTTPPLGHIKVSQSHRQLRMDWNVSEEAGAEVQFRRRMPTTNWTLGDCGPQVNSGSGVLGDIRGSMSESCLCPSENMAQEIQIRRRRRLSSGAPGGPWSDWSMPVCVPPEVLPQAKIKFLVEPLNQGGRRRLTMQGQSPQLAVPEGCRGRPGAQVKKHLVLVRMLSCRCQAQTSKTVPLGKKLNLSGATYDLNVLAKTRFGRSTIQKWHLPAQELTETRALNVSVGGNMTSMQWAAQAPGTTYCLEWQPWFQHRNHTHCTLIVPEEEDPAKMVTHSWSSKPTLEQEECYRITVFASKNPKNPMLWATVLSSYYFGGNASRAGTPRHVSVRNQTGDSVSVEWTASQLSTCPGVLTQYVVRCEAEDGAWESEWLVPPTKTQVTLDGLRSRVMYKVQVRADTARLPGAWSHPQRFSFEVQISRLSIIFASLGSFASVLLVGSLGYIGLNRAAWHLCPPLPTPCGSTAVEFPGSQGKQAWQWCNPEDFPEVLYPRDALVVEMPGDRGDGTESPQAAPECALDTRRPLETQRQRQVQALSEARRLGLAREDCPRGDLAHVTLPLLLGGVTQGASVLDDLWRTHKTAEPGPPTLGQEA

B1: recombinant mouse matrix metalloproteinase-9 (protein)
chain: FQTFKGLKWDHHNITYWIQNYSEDLPRDMIDDAFARAFAVWGEVAPLTFTRVYGPEADIVIQFGVAEHGDGYPFDGKDGLLAHAFPPGAGVQGDAHFDDDELWSLGKGVVIPTYYGNSNGAPCHFPFTFEGRSYSACTTDGRNDGTPWCSTTADYDKDGKFGFCPSERLYTEHGNGEGKPCVFPFIFEGRSYSACTTKGRSDGYRWCATTANYDQDKLYGFCPTRVDATVVGGNSAGELCVFPFVFLGKQYSSCTSDGRRDGRLWCATTSNFDTDKKWGFCPDQGYSLFLVAAHEFGHALGLDHSSVPEALMYPLYSYLEGFPLNKDDIDGIQYLYGRGSKPDPRPPATTTTEPQPTAPPTMCPTIPPTAYPTVGPTVGPTGAPSPGPTSSPSPGPTGAPSPGPTAPPTAGSSEASTESLSPADNPCNVDVFDAIAEIQGALHFFKDGWYWKFLNHRGSPLQGPFLTARTWPALPATLDSAFEDPQTKRVFFFSGRQMWVYTGKTVLGPRSLDKLGLGPEVTHVSGLLPRRLGKALLFSKGRVWRFDLKSQKVDPQSVIRVDKEFSGVPWNSHDIFQYQDKAYFCHGKFFWRVSFQNEVNKVDHEVNQVDDVGYVTYDLLQCP
For B1, the “in vitro cleavage, 30 min at 37° C., SDS-PAGE” value is “Decrease of molecular weight from ˜105 kDa to ˜60 kDa indicates proteolytic cleavage of IL12Rβ1-VP-IL12 and IL12Rβ1-LS-IL12”.
